Key:
Lip = details: optimal pH 9.0, 40 °C; substrate not named, taken as pNPA (best substrate)
[1] = system: CC(=O)Oc1ccc([N+](=O)[O-])cc1; assay: purified protein; details: optimal pH 8.5, 40 °C, substrate not named, taken as pNPA (best substrate)

Compound: CC(=O)Oc1ccc([N+](=O)[O-])cc1 [C2, p-nitrophenyl acetate]
- Km (Lip): 363 ± 30 µM

Compound: Lip (Enterobacter cloacae)
- Km [1]: 0.643 ± 0.03 mM
- kcat [1]: 9.8 ± 0.09 s⁻¹
- kcat/Km [1]: 15200 ± 210 M⁻¹ s⁻¹

Reference: PMC5858142, “A novel cold-adapted esterase from Enterobacter cloacae: Characterization and improvement of its activity and thermostability via the site of Tyr193Cys” (Microbial Cell Factories, 2018)
